{
  "source": "paper PMC9034974",
  "about": "“Physicochemical characterization of the recombinant lectin scytovirin and microbicidal activity of the SD1 domain produced in rice against HIV-1” (Plant Cell Reports, 2022)",
  "key": {"[1]": {"target": "recombinant gp120 used for isothermal titration calorimetry (strain not stated) (HIV-1 (strain not stated)) (UniProt P04578)", "assay": "ITC; 102 µM SVN titrated into the cell with 1.6 µM gp120; 30 °C; 10 mM sodium phosphate pH 7.4, 3 mM sodium azide; fitted to one set of identical sites"}, "[2]": {"target": "recombinant gp120 used for isothermal titration calorimetry (strain not stated) (HIV-1 (strain not stated)) (UniProt P04578)", "assay": "ITC; 102 µM SVN titrated into the cell with 1.6 µM gp120; 30 °C; 10 mM sodium phosphate pH 7.4, 3 mM sodium azide; fitted to one set of identical sites", "remark": "listed apart in the source"}},
  "note": "Like-named read-outs stand apart in the source and are kept apart here.",
  "data": [
    {"substance": "scytovirin (SVN), full-size, E. coli-produced (from UniProt P86041 1-95) (natural protein)", "values": [
      {"measurement": "Kd", "setting": "[1]", "value": 1500, "unit": "nM"},
      {"measurement": "Kd", "setting": "[2]", "value": 1630, "unit": "nM"},
      {"measurement": "dH", "setting": "[2]", "value": -6.45, "unit": "kcal/mol"},
      {"measurement": "stoichiometry N (SVN per gp120)", "setting": "[2]", "value": 5}
    ]}
  ]
}
